The values below come from patent US20210269836A1 (JOHN INNES CENTRE, published 2021).

The target in assay [1] is T1, LAMT-YFPC (loganic acid methyltransferase fused to the C-terminal split YFP fragment) (UniProt B2KPR3 1-371).
T1 construct: Control construct of the BiFC assay; also called LAMT-YC; not shown: C-terminal split YFP fragment (YFPC)
T1 sequence (looked up): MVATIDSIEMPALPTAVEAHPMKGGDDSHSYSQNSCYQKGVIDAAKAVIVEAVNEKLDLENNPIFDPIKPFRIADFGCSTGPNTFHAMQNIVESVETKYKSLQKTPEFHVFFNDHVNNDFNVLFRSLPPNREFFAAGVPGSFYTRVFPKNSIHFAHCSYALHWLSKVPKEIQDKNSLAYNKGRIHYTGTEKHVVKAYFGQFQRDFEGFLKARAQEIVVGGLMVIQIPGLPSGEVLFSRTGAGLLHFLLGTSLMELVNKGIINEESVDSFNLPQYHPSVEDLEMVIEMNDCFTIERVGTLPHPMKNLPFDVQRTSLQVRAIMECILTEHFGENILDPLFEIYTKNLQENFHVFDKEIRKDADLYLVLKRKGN
The experiment in a line: BiFC in transiently transformed C. roseus cells. On the procedure: (§1) Interaction of DPAS with TS and CS. DPAS/CS and DPAS/TS interactions were analyzed by BiFC in C. roseus cells transiently transformed by distinct combinations of plasmids encoding fusions with the two split YFP fragments, YFPN (YN) and YFPC (YC) as indicated on each pictures of the first row (A, D, G, J, M). Identification of transiently transformed cells was achieved by co-transformation with the nucleus (nuc)-CFP marker(B, E, H, K, N). […] Interactions of DPAS and TS with loganic acid methyltransferase (LAMT)-YN and LAMT-YC were also studied to evaluate the specificity of DPAS/TS interactions. Cell morphology is observed with differential interference contrast (DIC) (C, F, I, L, O). Scale bars, 10 μm.
(§2) Transient transformation of C. roseus cells by particle bombardment and fluorescence imaging were performed. Briefly, C. roseus plated cells were bombarded with DNA-coated gold particles (1 μm) and 1,100 psi rupture disc at a stopping-screen-to-target distance of 6 cm, using the Bio-Rad PDS1000/He system. Cells were cultivated for 16 h to 38 h (DPAS, CS and TS) or up to 96 h for PAS before being harvested and observed. The subcellular localization was determined using an Olympus BX-51 epifluorescence microscope equipped with an Olympus DP-71 digital camera and a combination of YFP and CFP filters. […]

In assay [2] the target is T2, LAMT-YFPN (loganic acid methyltransferase fused to the N-terminal split YFP fragment) (UniProt B2KPR3 1-371).
T2 construct: Control construct of the BiFC assay; also called LAMT-YN; not shown: N-terminal split YFP fragment (YFPN)
T2 sequence (looked up): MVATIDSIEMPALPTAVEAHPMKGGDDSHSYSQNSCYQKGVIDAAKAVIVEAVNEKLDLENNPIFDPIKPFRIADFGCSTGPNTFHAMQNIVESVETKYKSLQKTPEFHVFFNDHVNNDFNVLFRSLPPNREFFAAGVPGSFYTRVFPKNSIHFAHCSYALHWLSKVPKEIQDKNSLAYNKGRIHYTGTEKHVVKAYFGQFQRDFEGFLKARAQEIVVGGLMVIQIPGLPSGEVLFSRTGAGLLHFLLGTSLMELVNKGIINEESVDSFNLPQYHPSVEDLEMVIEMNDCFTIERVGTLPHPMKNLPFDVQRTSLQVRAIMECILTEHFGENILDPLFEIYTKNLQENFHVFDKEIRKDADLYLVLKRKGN
The assay is described as follows: BiFC in transiently transformed C. roseus cells. On the procedure:
as §1, §2

B1: TS-YFPN (Tabersonine Synthase fused at its C-terminus to the N-terminal split YFP fragment) (enzyme)
chain: MGSSDETIFDLPPYIKVFKDGRVERLHSSPYVPPSLNDPETGGVSWKDVPISSVVSARIYLPKINNHDEKLPIIVYFHGAGFCLESAFKSFFHTYVKHFVAEAKAIAVSVEFRLAPENHLPAAYEDCWEALQWVASHVGLDISSLKTCIDKDPWIINYADFDRLYLWGDSTGANIVHNTLIRSGKEKLNGGKVKILGAILYYPYFLIRTSSKQSDYMENEYRSYWKLAYPDAPGGNDNPMINPTAENAPDLAGYGCSRLLISMVADEARDITLLYIDALEKSGWKGELDVADFDKQYFELFEMETEVAKNMLRRLASFIK
notes: BiFC fusion expressed transiently inside C. roseus cells; also called TS-YN; not shown: N-terminal split YFP fragment (YFPN) from plasmid pSCA-SPYNE173
As to B1, the binding result in assay [1] is given as “no binding”.

B2: YFPC-DPAS (dehydroprecondylocarpine acetate synthase fused at its N-terminus to the C-terminal split YFP fragment) (enzyme)
chain: MAGKSAEEEHPIKAYGWAVKDRTTGILSPFKFSRRATGDDDVRIKILYCGICHTDLASIKNEYEFLSYPLVPGMEIVGIATEVGKDVTKVKVGEKVALSAYLGCCGKCYSCVNELENYCPEVIIGYGTPYHDGTICYGGLSNETVANQSFVLRFPERLSPAGGAPLLSAGITSFSAMRNSGIDKPGLHVGVVGLGGLGHLAVKFAKAFGLKVTVISTTSKKDDAINGLGADGFLLSRDDEQMKAAIGTLDAIIDTLAVVHPIAPLLDLLRSQGKFLLLGAPSQSLELPPIPLLSGGKSIIGSAAGNVKQTQEMLDFAAEHDITANVEIIPIEYINTAMERLDKGDVRYRFVVDIENTLTPPSEL
notes: BiFC fusion expressed transiently inside C. roseus cells; also called YC-DPAS; dihydroprecondylocarpine acetate synthase; not shown: C-terminal split YFP fragment (YFPC) from plasmid pSCA-SPYCE (MR)
For the molecule B2, the binding result in assay [2] was “no binding”.
